Results as given in patent US20180186891A1 (PHILOGEN, published 2018).

Molecular target: T1, biotinylated Mouse FAP extracellular domain (mouse, UniProt P97321 26-761, biotinylated (site not stated))
T1 construct: extracellular domain; also called murine antigen
T1 sequence (looked up): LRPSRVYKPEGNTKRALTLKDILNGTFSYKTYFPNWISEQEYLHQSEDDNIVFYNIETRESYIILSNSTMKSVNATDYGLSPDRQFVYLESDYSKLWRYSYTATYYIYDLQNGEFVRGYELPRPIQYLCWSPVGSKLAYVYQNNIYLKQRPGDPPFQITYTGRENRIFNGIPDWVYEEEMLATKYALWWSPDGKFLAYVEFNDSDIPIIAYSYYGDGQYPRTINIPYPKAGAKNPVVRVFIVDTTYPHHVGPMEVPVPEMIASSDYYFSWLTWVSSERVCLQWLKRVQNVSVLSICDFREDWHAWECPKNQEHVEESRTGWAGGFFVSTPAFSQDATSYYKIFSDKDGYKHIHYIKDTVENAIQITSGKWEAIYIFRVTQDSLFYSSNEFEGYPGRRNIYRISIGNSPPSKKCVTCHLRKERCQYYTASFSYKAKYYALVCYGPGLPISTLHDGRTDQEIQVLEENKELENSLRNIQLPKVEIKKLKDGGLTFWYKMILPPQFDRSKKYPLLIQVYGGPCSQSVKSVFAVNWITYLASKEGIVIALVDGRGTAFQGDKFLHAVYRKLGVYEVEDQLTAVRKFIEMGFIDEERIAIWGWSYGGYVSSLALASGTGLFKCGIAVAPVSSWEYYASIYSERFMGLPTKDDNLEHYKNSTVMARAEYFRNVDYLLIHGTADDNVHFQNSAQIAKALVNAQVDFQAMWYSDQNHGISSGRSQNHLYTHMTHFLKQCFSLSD
Assay: ELISA, biotinylated FAP extracellular domain on streptavidin strips, detection with anti-Myc 9E10
Experimental: ELISA: Streptawell High Bind strips (Roche) were coated with biotinylated Human or Mouse FAP extracellular domain at 100 nM. Cross reactivity with human and murine antigen of the anti-FAP F5 antibody was assessed by detection with the anti-Myc antibody 9E10 and an HRP-conjugated anti-Murine Fc antibody (Sigma). Calorimetric detection of antibody-antigen binding was performed using BM-Blue POD soluble substrate (Roche).

B1: antibody F5 (in scFv format) (scFv, V domains shown)
VH: EVQLLESGGGLVQPGGSLRLSCAASGFTFSPAYMSWVRQAPGKGLEWVSAISGSGGSTYYADSVKGRFTISRDNSKNTLYLQMNSLRAEDTAVYYCAKGWRAFDYWGQGTLVTVSS
VL: EIVLTQSPGTLSLSPGERATLSCRASQSVSRNYLAWYQQKPGQAPRLLIYGASSRATGIPDRFSGSGSGTDFTLTISRLEPEDFAVYYCQQSLGYPPTFGQGTKVEIK
notes: Tested as a single-chain Fv; Detection with anti-Myc antibody 9E10 implies a myc tag; also called F5 antibody; anti-FAP F5 antibody
binding result: binds
